Changes are numbered by the printed parent chain.
T1: YefM antitoxin without tag (pET22b-yefM), as in the heterohexamer (S. aureus (NCTC8325 strain), UniProt A0A0B4ND47 1-83)
T1 sequence (looked up): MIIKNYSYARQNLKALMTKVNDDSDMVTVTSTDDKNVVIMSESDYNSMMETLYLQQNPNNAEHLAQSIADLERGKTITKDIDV

T2: YefM (antitoxin; in heterohexamer, YoeB2-YefM4);YoeB (toxin; in heterohexamer, YoeB2-YefM4) (Staphylococcus aureus …, UniProt Q2G285;Q2G286 1-83;1-88, |)
T2 sequence 1: T1 sequence (looked up)
T2 sequence 2: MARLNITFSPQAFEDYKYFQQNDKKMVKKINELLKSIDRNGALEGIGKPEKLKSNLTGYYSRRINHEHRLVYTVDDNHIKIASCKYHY

B1: YefM antitoxin, expressed alone (natural protein, S. aureus (NCTC8325 strain), UniProt A0A0B4ND47 1-83, looked up)
chain: T1 sequence (looked up)
B2: YoeB toxin with N-terminal 6xHis tag (pET28a-yoeB) (natural protein)
chain: T2 sequence 2 with D23N
B3: promoter core mutant (ATTGTACA to ATTTTAAA) (dsDNA)
DNA 1: TTATTTTAAAGATATTTTTAAAATTG
DNA 2: CAATTTTAAAAATATCTTTAAAATAA
B4: promoter flank mutant (ATTGTACA to AGCGTACG) (dsDNA)
DNA 1: TTAGCGTACGGATATGCGTACGCTTG
DNA 2: CAAGCGTACGCATATCCGTACGCTAA

What was measured:
SEC-MALS = target: the molecule itself; experiment: SEC-MALS
[1] = target: T1, YefM antitoxin without tag …; experiment: SEC-MALS
[2] = target: T2, YefM (antitoxin; in heterohexamer, …); experiment: ITC

| Binder | binding result [2] | also measured |
| --- | --- | --- |
| B1 | – | stoichiometry N (SEC-MALS): 2 |
| B2 | – | stoichiometry N [1]: 0.5 YoeB per YefM |
| B3 | no binding | – |
| B4 | no binding | – |
